{"source": "patent US20250228957A1", "about": "(BIOHAVEN THERAPEUTICS, published 2025)", "binders": {"B1": {"name": "ABT030 (chimeric LALA PA mutant Km55 antibody) (antibody, human IgG1, kappa, L234A L235A, V domains shown)", "VH": "ELQLQESGPGLVKPSQSLSLTCSVTGYSIRSNYWGWIRKFPGNKMEWMGYITYSGGTYYNPSLKSRISITRDTSKNQFFLQLTSVTTEDTATYYCTRWGDWYFDFWGPGTKVTVSP", "VL": "DVVLTQTPPPLSVAIGQSVSISCKSSQSLVHTDGKTYLHWLLQSPGQSPKLLIYQVSNLGSGVPDRFSGTGSQKDFTLKISRVEAEDLGVYYCVQATHFPLTFGIGTKLELQR"}}, "key": {"[1]": {"biological_target": "Total IgA", "assay": "cell-based or functional assay"}, "[2]": {"biological_target": "Deglycosylated IgA (dg-IgA) (human, UniProt P01876-1 1-353, Human serum IgA was treated with PNGase, neuraminidase, and galactosidase; conjugated to Alexa Fluor 594 in the cell uptake assays)", "sequence (P01876 other isoform, or with tags, fused parts or gaps)": "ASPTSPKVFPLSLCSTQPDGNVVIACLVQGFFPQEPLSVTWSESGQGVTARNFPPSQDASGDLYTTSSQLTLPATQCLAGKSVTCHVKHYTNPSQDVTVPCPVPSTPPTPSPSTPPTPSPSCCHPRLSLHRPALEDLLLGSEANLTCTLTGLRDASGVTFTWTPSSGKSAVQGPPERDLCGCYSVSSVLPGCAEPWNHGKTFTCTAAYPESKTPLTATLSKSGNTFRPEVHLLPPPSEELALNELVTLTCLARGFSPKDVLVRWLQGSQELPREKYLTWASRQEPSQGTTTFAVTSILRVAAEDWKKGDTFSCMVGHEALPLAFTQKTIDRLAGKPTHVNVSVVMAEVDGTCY", "assay": "cell-based or functional assay"}}}
{"binder": "B1", "values": [{"measurement": "EC50, Assay #1, uptake of A594-labelled cargo by HEK293 (+ASGPR) cells", "setting": "[1]", "result": 7.15, "unit": "nM"}, {"measurement": "EC50, Assay #1, uptake of A594-labelled cargo by HEK293 (+ASGPR) cells", "setting": "[2]", "result": 0.353, "unit": "nM"}, {"measurement": "EC50, Assay #3, uptake of A594-labelled cargo by HEK293 (+ASGPR) cells", "setting": "[2]", "result": 3.53, "unit": "nM"}, {"measurement": "S/N, Assay #1, uptake of A594-labelled cargo by HEK293 (+ASGPR) cells", "setting": "[2]", "result": 4.3, "unit": "signal-to-noise ratio"}, {"measurement": "S/N, Assay #2, uptake of A594-labelled cargo by HEK293 (+ASGPR) cells", "setting": "[2]", "result": 3.7, "unit": "signal-to-noise ratio"}, {"measurement": "S/N, Assay #3, uptake of A594-labelled cargo by HEK293 (+ASGPR) cells", "setting": "[2]", "result": 7.1, "unit": "signal-to-noise ratio"}]}
